# Columns and labels:
# HeLa Kyoto [1] = assay: thermal stability score vs G1/S (z-score of summed log2 fold changes over temperatures); higher = more thermally stable than in G1/S
# HeLa Kyoto [2] = assay: solubility in G1/S (NP-40 vs SDS abundance) (log2 ratio); higher = more soluble; conditions: cell cycle stage: G1/S
# HeLa Kyoto [3] = assay: solubility change mitosis vs G1/S (difference of NP-40 vs SDS log2 ratios) (log2 ratio difference); higher = more soluble in mitosis
# HeLa Kyoto [4] = assay: melting temperature (median over replicates), in situ; higher = more thermally stable
# [5] = cell cycle stage: early G1 (4.5 h after nocodazole release)
# 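For melting temperature (median over replicates), in situ in this document: HeLa Kyoto cells synchronized by double thymidine or nocodazole block, proteins quantified by TMT10plex mass spectrometry, three independent biological replicates.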
# 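For solubility change mitosis vs G1/S (difference of NP-40 vs SDS log2 ratios) in this document: synchronized HeLa Kyoto cells (double thymidine block for G1/S, nocodazole release for mitosis), protein amounts in NP-40 versus SDS lysates quantified by mass spectrometry, three biological replicates.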
# 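For solubility in G1/S (NP-40 vs SDS abundance) in this document: HeLa Kyoto cells arrested at G1/S by double thymidine block, proteins quantified by TMT10plex mass spectrometry in mild NP-40 versus SDS extracts, three biological replicates.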
# 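For thermal stability score vs G1/S (z-score of summed log2 fold changes over temperatures) in this document: synchronized HeLa Kyoto cells, proteins quantified by TMT10plex mass spectrometry, three biological replicates, mitosis taken 0.5 h after nocodazole release, G1/S directly after double thymidine block.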
# Sequence of XPO4 (chain, as listed by the source): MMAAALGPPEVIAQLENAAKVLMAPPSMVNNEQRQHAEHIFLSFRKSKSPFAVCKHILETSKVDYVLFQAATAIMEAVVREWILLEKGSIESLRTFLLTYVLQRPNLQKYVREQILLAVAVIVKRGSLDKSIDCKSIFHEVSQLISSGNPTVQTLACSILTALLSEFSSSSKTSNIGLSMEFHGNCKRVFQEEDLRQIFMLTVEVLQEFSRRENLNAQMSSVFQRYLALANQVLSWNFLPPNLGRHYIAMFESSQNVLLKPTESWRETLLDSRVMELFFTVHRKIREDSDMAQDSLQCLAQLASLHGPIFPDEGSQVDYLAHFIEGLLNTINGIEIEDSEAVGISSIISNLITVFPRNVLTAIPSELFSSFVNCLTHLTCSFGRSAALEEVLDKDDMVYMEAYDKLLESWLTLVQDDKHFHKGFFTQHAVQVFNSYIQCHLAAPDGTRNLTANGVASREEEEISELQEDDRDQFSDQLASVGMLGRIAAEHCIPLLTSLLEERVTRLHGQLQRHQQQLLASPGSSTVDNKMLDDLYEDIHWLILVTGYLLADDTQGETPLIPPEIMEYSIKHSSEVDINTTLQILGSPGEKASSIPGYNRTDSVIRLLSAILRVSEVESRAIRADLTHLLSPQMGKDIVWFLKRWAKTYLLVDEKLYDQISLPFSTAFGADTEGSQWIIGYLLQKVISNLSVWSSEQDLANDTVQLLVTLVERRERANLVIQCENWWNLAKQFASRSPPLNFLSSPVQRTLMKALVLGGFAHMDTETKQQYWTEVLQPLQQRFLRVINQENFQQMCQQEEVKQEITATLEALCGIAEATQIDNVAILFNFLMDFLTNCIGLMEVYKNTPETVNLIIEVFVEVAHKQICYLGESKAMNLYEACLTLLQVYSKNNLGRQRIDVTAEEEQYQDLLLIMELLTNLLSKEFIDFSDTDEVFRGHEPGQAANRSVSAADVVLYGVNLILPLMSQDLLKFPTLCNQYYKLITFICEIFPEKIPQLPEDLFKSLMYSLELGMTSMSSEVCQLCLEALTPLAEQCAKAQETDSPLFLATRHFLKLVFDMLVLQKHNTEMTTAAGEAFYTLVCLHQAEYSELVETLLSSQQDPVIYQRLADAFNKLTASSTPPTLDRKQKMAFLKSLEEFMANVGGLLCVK
# Sequence of STK38 (chain, as listed by the source): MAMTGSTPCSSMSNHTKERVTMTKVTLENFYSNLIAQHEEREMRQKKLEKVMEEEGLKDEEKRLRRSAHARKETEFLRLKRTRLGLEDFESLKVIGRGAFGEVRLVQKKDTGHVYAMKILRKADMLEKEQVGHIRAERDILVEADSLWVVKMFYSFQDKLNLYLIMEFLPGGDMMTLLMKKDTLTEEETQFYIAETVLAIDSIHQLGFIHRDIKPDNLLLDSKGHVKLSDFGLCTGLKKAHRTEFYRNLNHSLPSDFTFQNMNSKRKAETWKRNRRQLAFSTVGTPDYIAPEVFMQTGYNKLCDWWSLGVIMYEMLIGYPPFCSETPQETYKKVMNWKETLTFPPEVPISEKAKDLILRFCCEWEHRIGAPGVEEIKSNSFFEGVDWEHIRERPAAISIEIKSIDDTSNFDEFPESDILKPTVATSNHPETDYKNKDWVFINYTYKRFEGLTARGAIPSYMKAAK
# Sequence of WNK1 (chain, as listed by the source): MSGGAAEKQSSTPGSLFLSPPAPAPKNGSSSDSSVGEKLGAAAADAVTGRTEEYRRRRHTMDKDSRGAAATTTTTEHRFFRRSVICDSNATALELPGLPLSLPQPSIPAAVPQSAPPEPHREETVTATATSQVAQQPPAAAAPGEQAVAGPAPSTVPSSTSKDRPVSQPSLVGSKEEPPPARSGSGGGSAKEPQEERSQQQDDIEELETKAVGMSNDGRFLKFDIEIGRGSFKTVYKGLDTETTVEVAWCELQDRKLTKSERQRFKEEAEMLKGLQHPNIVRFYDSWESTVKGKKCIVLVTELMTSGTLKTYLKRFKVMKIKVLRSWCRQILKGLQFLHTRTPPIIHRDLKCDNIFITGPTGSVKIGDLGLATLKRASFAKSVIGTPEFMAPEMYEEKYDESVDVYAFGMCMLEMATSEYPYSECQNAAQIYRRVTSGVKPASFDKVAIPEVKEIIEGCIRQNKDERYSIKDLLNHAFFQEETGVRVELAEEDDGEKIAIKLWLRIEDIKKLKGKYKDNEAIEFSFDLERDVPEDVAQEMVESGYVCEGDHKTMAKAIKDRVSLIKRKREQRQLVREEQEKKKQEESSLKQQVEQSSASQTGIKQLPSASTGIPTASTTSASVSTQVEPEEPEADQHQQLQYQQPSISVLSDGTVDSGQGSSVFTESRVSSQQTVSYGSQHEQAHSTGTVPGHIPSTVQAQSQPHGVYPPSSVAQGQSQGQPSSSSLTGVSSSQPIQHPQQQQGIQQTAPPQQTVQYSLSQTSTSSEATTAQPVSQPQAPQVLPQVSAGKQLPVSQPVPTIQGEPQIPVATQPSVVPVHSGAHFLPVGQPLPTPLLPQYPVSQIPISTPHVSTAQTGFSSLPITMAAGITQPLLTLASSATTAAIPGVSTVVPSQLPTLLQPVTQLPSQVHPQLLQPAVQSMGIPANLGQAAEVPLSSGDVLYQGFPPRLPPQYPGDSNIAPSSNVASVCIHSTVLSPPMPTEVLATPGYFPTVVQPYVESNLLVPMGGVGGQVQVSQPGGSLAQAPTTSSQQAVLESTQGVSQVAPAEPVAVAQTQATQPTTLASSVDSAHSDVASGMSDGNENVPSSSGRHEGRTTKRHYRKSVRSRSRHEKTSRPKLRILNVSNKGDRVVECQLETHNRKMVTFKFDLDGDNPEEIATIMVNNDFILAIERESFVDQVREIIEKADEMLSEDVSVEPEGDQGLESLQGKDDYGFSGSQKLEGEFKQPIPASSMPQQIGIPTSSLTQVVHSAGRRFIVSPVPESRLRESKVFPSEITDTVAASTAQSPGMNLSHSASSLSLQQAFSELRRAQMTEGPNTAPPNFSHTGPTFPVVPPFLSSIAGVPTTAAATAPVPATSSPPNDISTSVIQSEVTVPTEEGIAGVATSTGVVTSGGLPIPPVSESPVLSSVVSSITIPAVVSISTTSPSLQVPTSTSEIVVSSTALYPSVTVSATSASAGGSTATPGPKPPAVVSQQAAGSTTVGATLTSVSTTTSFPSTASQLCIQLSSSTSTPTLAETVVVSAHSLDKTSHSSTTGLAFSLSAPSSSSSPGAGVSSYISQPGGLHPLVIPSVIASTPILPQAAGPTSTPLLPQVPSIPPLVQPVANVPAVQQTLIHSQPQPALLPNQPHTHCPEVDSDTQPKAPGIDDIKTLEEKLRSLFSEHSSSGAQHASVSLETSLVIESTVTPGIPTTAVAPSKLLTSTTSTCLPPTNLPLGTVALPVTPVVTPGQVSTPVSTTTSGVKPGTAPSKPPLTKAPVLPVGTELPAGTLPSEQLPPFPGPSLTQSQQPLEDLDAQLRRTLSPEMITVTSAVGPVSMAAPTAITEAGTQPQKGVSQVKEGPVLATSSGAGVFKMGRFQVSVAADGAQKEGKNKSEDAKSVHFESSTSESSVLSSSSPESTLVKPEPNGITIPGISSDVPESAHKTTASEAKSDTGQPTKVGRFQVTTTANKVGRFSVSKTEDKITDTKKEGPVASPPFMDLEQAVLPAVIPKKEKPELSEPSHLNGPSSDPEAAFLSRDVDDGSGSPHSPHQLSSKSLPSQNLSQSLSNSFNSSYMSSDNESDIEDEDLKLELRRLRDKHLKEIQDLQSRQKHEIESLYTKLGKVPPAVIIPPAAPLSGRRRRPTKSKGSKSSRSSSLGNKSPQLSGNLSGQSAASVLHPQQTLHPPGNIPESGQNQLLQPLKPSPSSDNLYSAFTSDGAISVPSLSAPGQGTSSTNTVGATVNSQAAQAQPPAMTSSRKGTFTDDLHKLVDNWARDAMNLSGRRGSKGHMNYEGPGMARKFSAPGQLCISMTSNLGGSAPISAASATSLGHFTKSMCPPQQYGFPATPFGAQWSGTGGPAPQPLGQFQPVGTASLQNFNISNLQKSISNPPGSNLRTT
# Sequence of TROVE2 (chain, as listed by the source): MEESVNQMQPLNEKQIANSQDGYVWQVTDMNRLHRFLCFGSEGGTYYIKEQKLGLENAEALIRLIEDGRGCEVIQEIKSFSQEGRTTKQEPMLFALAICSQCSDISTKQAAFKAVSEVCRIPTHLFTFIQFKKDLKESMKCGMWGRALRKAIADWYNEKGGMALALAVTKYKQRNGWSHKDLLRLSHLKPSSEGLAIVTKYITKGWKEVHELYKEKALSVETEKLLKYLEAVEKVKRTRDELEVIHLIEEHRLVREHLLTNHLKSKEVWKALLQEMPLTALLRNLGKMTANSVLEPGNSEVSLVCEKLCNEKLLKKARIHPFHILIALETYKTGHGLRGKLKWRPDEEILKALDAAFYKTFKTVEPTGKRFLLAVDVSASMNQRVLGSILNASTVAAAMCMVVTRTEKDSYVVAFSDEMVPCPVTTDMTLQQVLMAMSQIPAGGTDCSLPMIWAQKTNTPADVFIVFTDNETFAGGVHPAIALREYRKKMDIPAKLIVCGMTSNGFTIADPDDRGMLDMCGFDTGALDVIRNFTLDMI
# Sequence of ZNF787 (chain, as listed by the source): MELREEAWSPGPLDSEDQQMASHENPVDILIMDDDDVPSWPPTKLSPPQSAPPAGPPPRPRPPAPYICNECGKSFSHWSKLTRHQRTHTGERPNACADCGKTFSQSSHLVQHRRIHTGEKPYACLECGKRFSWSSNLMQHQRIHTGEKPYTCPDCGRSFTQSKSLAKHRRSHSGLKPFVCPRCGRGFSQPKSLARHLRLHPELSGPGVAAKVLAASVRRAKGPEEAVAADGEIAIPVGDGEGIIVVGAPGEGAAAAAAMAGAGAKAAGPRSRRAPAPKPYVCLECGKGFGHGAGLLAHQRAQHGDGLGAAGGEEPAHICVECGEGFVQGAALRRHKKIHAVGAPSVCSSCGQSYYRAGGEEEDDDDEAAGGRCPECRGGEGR
# Sequence of TXNDC12 (chain, as listed by the source): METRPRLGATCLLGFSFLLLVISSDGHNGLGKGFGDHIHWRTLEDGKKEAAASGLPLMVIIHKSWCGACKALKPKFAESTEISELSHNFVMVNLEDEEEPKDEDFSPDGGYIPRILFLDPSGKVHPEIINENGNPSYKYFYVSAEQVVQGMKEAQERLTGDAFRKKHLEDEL
Substance,thermal stability score (HeLa Kyoto [1]; [5]),thermal stability score (HeLa Kyoto [1]; cell cycle stage: mitosis),solubility in G1/S (log2) (HeLa Kyoto [2]),solubility change mitosis (log2) (HeLa Kyoto [3]),melting temperature (HeLa Kyoto [4]; cell cycle stage: G1/S) [°C],melting temperature (HeLa Kyoto [4]; cell cycle stage: mitosis) [°C]
SEC16A,0.0465,2.03,-0.0963,-0.00335,49.4,49.7
SLC27A4,0.342,0.581,-0.211,-0.138,50.3,50.9
SLC35E1,0.109,0.648,-0.14,-0.172,51.3,52
SLTM,0.205,2.43,-1.17,0.595,51.1,51.4
STK38,0.464,1.32,-0.0452,-0.159,48.3,49.1
SUMF2,4.15,3.23,0.289,0.00354,52.9,54.7
TANC1,-0.0485,0.875,-0.0445,-0.166,50.1,50.7
TARBP1,0.335,-0.385,-0.262,-0.207,52.3,51.6
TENM3,-2.98,-2.29,0.0433,-0.0942,54.9,55.6
THADA,-0.0368,-1.12,-0.395,-0.159,51.6,50.2
TIMM50,-0.406,-0.388,0.393,-0.0286,51.4,50.8
TMED2,1.23,2.29,0.169,-0.171,55.5,55.3
TMEM55B,-1.51,-1.58,0.135,-0.162,53.4,53.5
TOP2A,-0.453,3.49,-2.15,-0.207,51,52.8
TRIO,-0.165,0.739,-0.25,-0.0514,48.9,49.5
TRIP11,0.295,1.48,0.34,-0.135,49.1,49

Substance,thermal stability score (HeLa Kyoto [1]; [5]),thermal stability score (HeLa Kyoto [1]; cell cycle stage: mitosis),solubility in G1/S (log2) (HeLa Kyoto [2]),solubility change mitosis (log2) (HeLa Kyoto [3]),melting temperature (HeLa Kyoto [4]; cell cycle stage: G1/S) [°C],melting temperature (HeLa Kyoto [4]; cell cycle stage: mitosis) [°C]
TROVE2,-4.29,-4.23,-0.149,-0.0914,57.5,54.7
TXNDC5,3.49,3.79,0.348,-0.0668,55.3,57.3
TXNDC12,-0.513,-0.814,0.365,0.232,53.5,54.2
UGGT1,3.04,4.09,-0.0908,-0.156,54.2,55
USP16,-0.114,0.382,-0.321,0.122,50.4,49.5
WNK1,1.74,3.55,0.0681,-0.164,51.9,52.2
XPNPEP3,-0.645,-2.12,0.275,-0.146,53.4,53.3
XPO4,0.898,0.432,-0.0631,-0.113,52.4,52
YBX3,-3.49,-8.21,0.366,-0.0607,54,53.8
ZCCHC6,1.03,2.02,-0.226,0.0648,49.9,49.3
ZFYVE16,-2.53,-1.48,-0.0282,-0.171,53.2,52.7
ZNF629,0.477,-1.32,-0.355,-0.0563,53.4,52.9
ZNF787,-0.71,-1.22,-0.0171,0.398,51.9,54.5
ZNFX1,-0.325,0.64,-0.239,-0.0887,50.3,49.5
ZWILCH,0.346,0.376,0.0446,-0.229,50.9,50.2

# Source: the supplement of paper PMC5998384
